Source: paper PMC6827286
Changes are numbered by the printed parent chain. Names and notes keep the numbering of the source.

T1: colFD-NL
T1 chain: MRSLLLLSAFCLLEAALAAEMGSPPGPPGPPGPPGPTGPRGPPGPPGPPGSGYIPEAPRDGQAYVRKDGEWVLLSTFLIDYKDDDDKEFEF

B1: Hsp47-HT (natural protein)
chain: AEVKKPLEAAAPGTAEKLSSKATTLAERSTGLAFSLYQAMAKDQAVENILLSPLVVASSLGLVSLGGKATTASQAKAVLSAEKLRDEEVHTGLGELLRSLSNSTARNVTWKLGSRLYGPSSVSFADDFVRSSKQHYNCEHSKINFRDKRSALQSINEWASQTTDGKLPEVTKDVERTDGALLVNAMFFKPHWDEKFHHKMVDNRGFMVTRSYTVGVTMMHRTGLYNYYDDEKEKLQMVEMPLAHKLSSLIILMPHHVEPLERLEKLLTKEQLKAWMGKMQKKAVAISLPKGVVEVTHDLQKHLAGLGLTEAIDKNKADLSRMSGKKDLYLASVFHATAFEWDTEGNPFDQDIYGREELRSPKLFYADHPFIFLVRDNQSGSLLFIGRLVRPKGDKMRDEL
modifications: HaloTag fluorescent ligand 618 on the HaloTag
B2: Hsp47-HT, P19324 Y353A (protein)
chain: B1 chain with Y353A
B3: Hsp47-HT, P19324 D351A (protein)
chain: B1 chain with D351A
B4: Hsp47-HT, P19324 R355A (protein)
chain: B1 chain with R355A
B5: Hsp47-HT, P19324 Q350A (protein)
chain: B1 chain with Q350A
B6: Hsp47-HT, P19324 I352A (protein)
chain: B1 chain with I352A
B7: Hsp47-HT, P19324 E356A (protein)
chain: B1 chain with E356A
B8: Hsp47-HT, P19324 I352F (protein)
chain: B1 chain with I352F
B9: Hsp47-HT, P19324 Y353L (protein)
chain: B1 chain with Y353L
B10: Hsp47-HT, P19324 Y353E (protein)
chain: B1 chain with Y353E
B11: Hsp47-HT, P19324 Y353R (protein)
chain: B1 chain with Y353R
B12: Hsp47-HT, P19324 Y353F (protein)
chain: B1 chain with Y353F
B13: Hsp47-HT, P19324 I352E (protein)
chain: B1 chain with I352E
B14: Hsp47-HT, P19324 I352L (protein)
chain: B1 chain with I352L
B15: Hsp47-HT, P19324 I352R (protein)
chain: B1 chain with I352R
B16: recombinant mouse Hsp47 (rmHsp47) WT (natural protein)
chain: B1 chain
B17: recombinant mouse Hsp47 (rmHsp47) Y353A (natural protein)
chain: B1 chain with Y353A
B18: recombinant mouse Hsp47 (rmHsp47) I352A (natural protein)
chain: B1 chain with I352A

Each binder was assayed against colFD-NL (bacteriophage T4) (assay: FRET or BRET; NanoBRET in the ER of living, transiently transfected HEK293 cells; colFD-NL (NanoLuc) donor, Hsp47-HT with HT ligand 618 (20-100 nM) acceptor; cells washed, furimazine added, 37 °C; BRET ratio 618/460 nm (mBU); some panels with Col003 and derivatives (2 h) or α,α-dipyridyl; the cell line is not named for every panel). Conditions: not given.
B1 gave a BRET ratio (donor to acceptor 1:50, HEK293) of 40 mBU.

Target: T1, colFD-NL
Assay: BRET
Conditions: chain shown with the change; in the ER of HEK293 cells; n = 4; parent: est. 100; read off a plot
Work on B2 yielded a percent of parent of 84%.
B3 showed a percent of parent of 100%.
Binder B4 has a percent of parent of 96%.
For B5, the percent of parent was 100%.
B6 gave a percent of parent of 86%.
In the case of B7, the percent of parent is reported as 95%.

What follows are binders tested against colFD-NL (bacteriophage T4) (assay: FRET or BRET; NanoBRET in the ER of living, transiently transfected HeLa cells; colFD-NL donor, Hsp47-HT with HT ligand 618 acceptor; 37 °C). Conditions: not given.
B1 gave a BRET ratio (donor to acceptor 1:100, HeLa) of 25 mBU.

Target: T1, colFD-NL
Assay: BRET
Conditions: chain shown with the change; in the ER of HEK293 cells; n = 4; parent: est. 100; read off a plot
Remark: another data set of the same source
B2 showed a percent of parent of 83%.
Work on B8 yielded a percent of parent of 95%.
In the case of B9, the percent of parent is reported as 82%.
With B10 the percent of parent was 77%.
Binder B11 has a percent of parent of 74%.
Binder B12 has a percent of parent of 88%.
B13 was tested, and the percent of parent was 83%.
B14 gave a percent of parent of 92%.
For B6, the percent of parent was 85%.
In the case of B15, the percent of parent is reported as 81%.

What follows are binders tested against Collagen (pig's skin type I-C (Nitta Gelatin Inc.)) (pig) (assay: SPR; Biacore T200; collagen amine-coupled to a CM5 chip (∼2,000 response units), rmHsp47 injected; 10 mM HEPES, 0.15 M NaCl, 0.05% surfactant P20, pH 7.4; 25 °C; kobs linearization method (Anabel)). Conditions: not given.
B16 was tested, and the Kd was 1.5 µM.
In the case of B17, the Kd is reported as 3.6 µM.
B18 gave a Kd of 3.3 µM.
